Data on one molecule can be found in patent publication US20250230210A1 (PARTNER THERAPEUTICS, published 2025).

In assay [1] the target is T1, human serum albumin (human, UniProt P02768 25-609).
T1 construct: also called HSA; Human Albumin
The experiment in a line: BLI, Octet 384, VHH-Fc on AHC sensor, albumin in solution.
Method: (§1) To assess binding, the VHH were cloned onto a human IgG1 Fc and hinge for ease of purification and analysis. […] The VHH-Fc constructs were loaded onto AHC sensors prior to exposure to the monomeric targets, human, mouse or rhesus albumin in solution to determine association and dissociation. In the case of the pH assessment, the binding reaction and dissociation buffer were at the described pH. Data acquisition was performed at 30° C.
(§2) To assess binding to albumin, the VHH were cloned onto a human IgG1 Fc and hinge for ease of purification and analysis. […] The VH-Fc constructs were loaded onto AHC sensors prior to exposure to the monomeric targets human, mouse or rhesus albumin in solution for association and then dissociation in buffer solution (Table 5 and FIGS. 5A-C).

The next assay deals with T2, Rhesus albumin (rhesus monkey, UniProt Q28522 17-600).
T2 construct: also called rhesus monkey albumin
Described as above.

Another assay addresses T3, Mouse Albumin (mouse, UniProt P07724 25-608).
T3 construct: also called murine albumin
The assay is described as above.

In assay [2] the target is T1, human serum albumin. The experiment in a line: BLI, Octet 384, VHH-Fc on AHC sensor, albumin in solution; VHH-Fc on AHC sensor, monomeric human albumin in solution; pH of Table 5 not stated.
The target of assay [3] is T1, human serum albumin. The experiment in a line: BLI, VHH-Fc on sensor, human albumin in solution, pH 6.5, 30 C, 1:1 model.
Method: as §2
(§3) To determine the dissociation constant, the binding reaction and dissociation were performed at the described pH. Data acquisition was performed at 30° C.
(§4) Data (time and response units) was analyzed using the ForteBio Data Analysis Software. The data was fit to a 1:1 binding model to calculate an association (Kon) and dissociation rate (Koff), and KD was calculated using the ratio kd/ka.
The target in assay [4] is T1, human serum albumin. The experiment in a line: BLI, VHH-Fc on sensor, human albumin in solution, pH 7.0, 30 C, 1:1 model.
Method: as §2, §3, §4
Assay [5] has as its target T1, human serum albumin. Description: BLI, VHH-Fc on sensor, human albumin in solution, pH 6.0, 30 C, 1:1 model.
Method: as §2, §3, §4
Assay [6] concerns the target T1, human serum albumin. Description: BLI, VHH-Fc on sensor, human albumin in solution, pH 5.5, 30 C, 1:1 model.
Method: as §2, §3, §4

Method for Mouse Albumin: as §1, §2
Method for Rhesus albumin: as §1, §2

B1: VHH-Fc construct (anti-albumin VHH cloned onto a human IgG1 Fc and hinge) (Fc fusion)
chain: EVQLLESGGGLVQPGGSLRLSCAASGETLDYYAIGWFRQAPGKEREGVSCIASSGGSTNYADSVKGRFTISRDNSKNTVYLQMNSLKPEDTAVYYCAAAVLECRTVVRGYDYWGQGTQVTVSS
notes: also called VH-Fc constructs; not shown: human IgG1 hinge and Fc
For the molecule B1, the Response with human serum albumin [1] is 0.178; with Rhesus albumin, 0.34; with Mouse Albumin it was 0.507. Besides, the Kd worked out at 66.2 nM with Rhesus albumin; 10.4 nM in the assay with Mouse Albumin; 159 nM in the assay with human serum albumin [2]; 8.2 nM with human serum albumin [3]; 6.63 nM in the assay with human serum albumin [4]; 3.81 nM with human serum albumin [5]. Binding with human serum albumin [6] was put at a Kd of 12.3 nM.
